In article PMC4002904:

What was measured:
[1] = target: GAL4 DNA-binding domain fused N terminal 47 amino acids of HBSP (Hepatitis B virus); test: two-hybrid; CheckMate mammalian two-hybrid in Huh-7 cells; pACT-EPHX1(353-455) with pBIND constructs and pG5luc reporter; renilla-normalised firefly luciferase at 48 h, relative to pBIND + pACT set to 1
[2] = target: GAL4 DNA-binding domain fused full-length HBSP (Hepatitis B virus); test: as above

B1: VP16-tagged mEH 353-455 (domain or fragment)
chain: DLLTNVMLYWTTGTIISSQRFYKENLGQGWMTQKHERMKVYVPTGFSAFPFELLHTPEKWVRFKYPKLISYSYMVRGGHFAAFEEPELLAQDIRKFLSVLERQ
[1]
  fold luciferase activity over the negative control: 12 fold
[2]
  fold luciferase activity over the negative control: 9 fold
